Source: paper PMC7432041, “[…], Artificial Tetrameric Lectins: A Tool to Screen Ligand and Pathogen Interactions” (International Journal of Molecular Sciences, 2020)

Key:
Assay in all cases: SEC-MALS; SEC-LS (static and dynamic light scattering, refractive index, absorbance at 280 and 550 nm); Shodex KW 802.5 column at 4 °C, 25 mM Tris pH 7.5, 150 mM NaCl, 4 mM CaCl2, 0.5 mL/min; 50 µL injected
[1] = molecular target: DC-SIGNR Fc-CRD (fusion of the DC-SIGNR CRD with human IgG1 Fc) (human)
[2] = molecular target: the molecule itself
Cy3-NeutrAvidin = molecular target: T1, Cy3-NeutrAvidin (UniProt P02701 25-152, Cy3 (Cy3-NHS ester, degree of labelling 0.5)); settings: both partners purified
T1 construct: NeutrAvidin, a deglycosylated tetrameric protein derived from avidin; subunit MW = 14.5 kDa as printed; Deglycosylated avidin; also called NeutrAvidin-Cy3; tetrameric NeutrAvidin; source: bought: ThermoFisher Scientific; labelled with Cy3-NHS ester
T1 sequence (P02701 25-152): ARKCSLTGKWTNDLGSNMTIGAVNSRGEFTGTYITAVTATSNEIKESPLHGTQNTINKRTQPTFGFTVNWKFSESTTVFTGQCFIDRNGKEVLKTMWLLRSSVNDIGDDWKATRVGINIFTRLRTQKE

DC-SIGNR Fc-CRD (fusion of the DC-SIGNR CRD with human IgG1 Fc) (Fc fusion)
stoichiometry N [1]: 2

B1: DC-SIGNR ECD (natural extracellular domain of human DC-SIGNR) (domain or fragment, UniProt Q9H2X3 78-399, looked up)
chain: SLSQEQSEQDAIYQNLTQLKAAVGELSEKSKLQEIYQELTQLKAAVGELPEKSKLQEIYQELTRLKAAVGELPEKSKLQEIYQELTRLKAAVGELPEKSKLQEIYQELTRLKAAVGELPEKSKLQEIYQELTELKAAVGELPEKSKLQEIYQELTQLKAAVGELPDQSKQQQIYQELTDLKTAFERLCRHCPKDWTFFQGNCYFMSNSQRNWHDSVTACQEVRAQLVVIKTAEEQNFLQLQTSRSNRFSWMGLSDLNQEGTWQWVDGSPLSPSFQRYWNSGEPNNSGNEDCAEFSGSGWNDNRCDVDNYWICKKPAACFRDE
notes: DC-SIGNR (L-SIGN), human, extracellular domain, amino acids 78 to 399; optimized synthetic gene in pET30-b between NdeI and HindIII; also called natural tetrameric DC-SIGNR ECD; L-SIGN ECD
stoichiometry N [2]: 4

B2: Biotin sortagged DC-SIGNR-CRD (biotin-LPRT-GGG-DC-SIGNR CRD) (domain or fragment, human)
chain: LPRTGGGLCRHCPKDWTFFQGNCYFMSNSQRNWHDSVTACQEVRAQLVVIKTAEEQNFLQLQTSRSNRFSWMGLSDLNQEGTWQWVDGSPLSPSFQRYWNSGEPNNSGNEDCAEFSGSGWNDNRCDVDNYWICKKPAACFRDE
modifications: biotin on the N-terminus (biotin-LPRT peptide joined by sortase A)
notes: sortase A motif of the biotin-LPRT-OMe peptide, transferred onto the N-terminal glycines; poly-Gly extension at the N-terminus of the CRD, exposed after factor Xa cleavage; DC-SIGNR (L-SIGN), human, CRD, amino acids 264 to 399; optimized synthetic gene in pET30-b between XbaI and HindIII; Theoretical mass 16.5 kDa (ESI-MS 16,556); also called biotin-CRD; biotinylated DC-SIGNR CRD; source: …
stoichiometry N (Cy3-NeutrAvidin): 4 biotin-CRD per NeutrAvidin tetramer (4:4 by chains)
